{"source": "paper PMC5383250", "about": "“Functional studies of E. faecalis RNase J2 and its role in virulence and fitness” (PLoS ONE, 2017)", "binders": {"B1": {"name": "E. faecalis RNase J1 (enzyme)", "chain": "not shown", "notes": "recombinant protein M.W. 62.6 kDa; also called rnjA gene product; ef2924; source: E. coli BL21, purified (Ni-NTA agarose)"}}, "target": "T1, E. faecalis RNase J2 (Enterococcus faecalis (strain OG1RF), UniProt Q836D0 1-562)", "T1 construct": "RNase J2 of Enterococcus faecalis, product of rnjB (ef1185); 1689 bp fragment PCR amplified from the OG1RF genome with primers 1185NdeF (begins at the ATG) and 1185XhoR (ends at the stop codon), in vector pQE30; recombinant protein M.W. 64.2 kDa; Vector pQE30; also called wild-type RNase J2; rnjB gene product; source: E. coli BL21, purified (Ni-NTA agarose)", "T1 sequence (looked up)": "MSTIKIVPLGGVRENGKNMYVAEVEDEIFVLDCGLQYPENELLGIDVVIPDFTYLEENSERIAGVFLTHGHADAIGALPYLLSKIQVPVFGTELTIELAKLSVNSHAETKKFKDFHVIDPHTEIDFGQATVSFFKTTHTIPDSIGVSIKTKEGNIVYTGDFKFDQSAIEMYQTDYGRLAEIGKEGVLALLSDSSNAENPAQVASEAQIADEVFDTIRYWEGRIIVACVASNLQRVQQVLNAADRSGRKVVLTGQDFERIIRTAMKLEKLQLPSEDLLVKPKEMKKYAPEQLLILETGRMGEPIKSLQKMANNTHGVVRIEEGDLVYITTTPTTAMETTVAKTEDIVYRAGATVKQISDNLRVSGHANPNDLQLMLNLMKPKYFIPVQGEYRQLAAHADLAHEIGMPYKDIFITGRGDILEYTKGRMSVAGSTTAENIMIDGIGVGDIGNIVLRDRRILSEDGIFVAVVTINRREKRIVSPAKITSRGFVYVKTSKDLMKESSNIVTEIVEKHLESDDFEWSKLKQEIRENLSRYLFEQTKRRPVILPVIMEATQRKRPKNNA", "test": "SPR; Biacore T100; E. faecalis RNase J1 immobilized on a CM5 sensor surface; J2 proteins 400 to 50 nM in duplicate; fitted to the 1:1 binding model", "conditions": "both partners purified"}
{"binder": "B1", "values": [{"measurement": "Kd", "result": 74, "unit": "nM"}]}
